Laboratory results from patent US20120237948A1 (published 2012).
Square brackets hold non-standard residues; d marks the D form. Ends that are not written are not given here. Hyp = O=C(O)[C@@H]1C[C@@H](O)CN1

How the values were obtained:
Assay in all cases: competitive ELISA
[1] = molecular target: T1, peptide Gly-Glu-Pro-Gly-Asp-Asp-Gly-Pro-Ser-Gly-Ala-Glu-Gly-Pro-HyP-Gly-Pro-Gln-Gly (SEQ ID NO: 17)
T1 peptide: GEPGDDGPSGAEGP[Hyp]GPQG

[2] = molecular target: T2, peptide Gly-Pro-Pro-Gly-Pro-Gln-Gly-Leu-Ala-Gly-Gln-Arg (SEQ ID NO: 16)
T2 peptide: GPPGPQGLAGQR

[3] = molecular target: T3, peptide Gly-Glu-Pro-Gly-Asp-Asp-Gly-Pro-Ser-Gly-Ala-Glu-Gly-Pro-Pro-Gly-Pro-Gln-Gly (SEQ ID NO: 18)
T3 peptide: GEPGDDGPSGAEGPPGPQG

[4] = molecular target: T4, neoepitope peptide Gly-Pro-Gln-Gly (SEQ ID NO: 15)
T4 peptide: GPQG

[5] = molecular target: neoepitope peptide Asp-Gly-Pro-Ser-Gly-Ala-Glu-Gly-Pro-HyP-Gly-Pro-Gln-Gly (SEQ ID NO: 14) (hydroxyproline (HyP) at position 10 of the peptide (position 971))

- IC50 [1]: 20 nM
- IC50 [2]: 20.2 µM
- IC50 [3]: 22 nM
- IC50 [4]: 99 µM
- IC50 [5]: 40 nM
B1: anti-neoepitope antibody 20A10 (antibody, V domains shown)
VH: QIQLVQSGPELKEPGETVRISCKASGYTFTKYGINWVKQAPGKGLEWMAWINTYSGMTTYADDFKGRFAFSLETSANTAYLQINHLKNDDTATYFCARSLGYDYGGFAYWGQGTLVTVSA
VL: DVLLTQTPLSLPVSLGDQAFISCRSGQTLVHDNENTYFHWYLQKPGQSPKLLIYKISNRFSGVPDRFSGSGSGTDFTLKISRVEPEDLGIYFCSQNTHVPFTFGSGTKLEIKR
